These results are taken from publication PMC3048092.

This test has as its target FITC-BAD pSAHB-2. The test can be described thus: cross-linking.

Substance BCL-XLΔC (domain or fragment) showed a crosslinking conversion at 2 hours of UV exposure of 35%.
